Values quoted from earlier work, collected in article PMC3654037.

Tests used:
[1] = target: CD48 (Homo sapiens) (UniProt P09326)
[2] = target: CD58 (Homo sapiens) (UniProt P19256)
[3] = target: CD86 (Homo sapiens) (UniProt P42081)
[4] = target: nectin-1 (Homo sapiens) (UniProt Q15223)
[5] = target: nectin-2 (Homo sapiens) (UniProt Q92692)
[6] = target: nectin-4 (Homo sapiens) (UniProt Q96NY8)

Sequence of UniProt P42081 (P42081 24-247): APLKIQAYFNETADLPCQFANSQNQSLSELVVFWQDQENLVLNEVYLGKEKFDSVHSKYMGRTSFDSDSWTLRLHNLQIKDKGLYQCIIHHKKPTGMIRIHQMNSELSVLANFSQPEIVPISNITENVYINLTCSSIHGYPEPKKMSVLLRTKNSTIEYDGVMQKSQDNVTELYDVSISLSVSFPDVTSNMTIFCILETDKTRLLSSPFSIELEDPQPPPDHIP
Sequence of UniProt P09326 (P09326 27-220): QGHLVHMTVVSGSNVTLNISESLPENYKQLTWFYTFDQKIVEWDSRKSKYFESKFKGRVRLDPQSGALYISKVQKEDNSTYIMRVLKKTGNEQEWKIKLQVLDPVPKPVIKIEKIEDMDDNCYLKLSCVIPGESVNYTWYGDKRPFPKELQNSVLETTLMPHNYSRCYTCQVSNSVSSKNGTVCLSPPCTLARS
Sequence of UniProt P19256 (P19256 29-215): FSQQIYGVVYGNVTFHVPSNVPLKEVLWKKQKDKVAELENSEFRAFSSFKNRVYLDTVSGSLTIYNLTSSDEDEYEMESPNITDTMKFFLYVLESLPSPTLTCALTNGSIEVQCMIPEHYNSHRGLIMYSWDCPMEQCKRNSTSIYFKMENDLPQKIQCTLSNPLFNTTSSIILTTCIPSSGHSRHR

For 2B4 (from UniProt Q9BZW8), the Kd [1] is listed as 10 µM.

In the case of CD2 (from UniProt P06729), the Kd [2] is listed as 10 µM.

In the case of CD28 (from UniProt P10747), the Kd [3] is given as 20 µM.

In the case of nectin-1 (from UniProt Q15223), the Kd [4] is listed as 17.5 µM.

In the case of nectin-2 (from UniProt Q92692), the Kd [5] is listed as 0.4 µM.

In the case of nectin-4 (from UniProt Q96NY8), the Kd [6] is given as 153 µM.
